Results: the supplement of paper PMC9170038

Tested on: K4 kissing-loop RNA reporter
Experiment: apparent KD of K4 kissing-loop reporter; higher = weaker reporter binding
Conditions: Eterna round: R107
Method: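 RNA-MaP round R107: designed RNA switches with theophylline, tryptophan, arginine or FMN aptamers are transcribed on-chip within common flanks. They are titrated with a labelled K4 kissing-loop RNA reporter in RNA-MaP buffer (100 mM Tris pH 7.5, 80 mM KCl, 4 mM MgCl2), without ligand or with the indicated ligand. Median apparent KD per design.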

[1] = input ligand: theophylline 20 uM
[2] = input ligand: tryptophan 2.4 mM
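Note: bound reporter read as fluorescence of individual clusters on recovered sequencing chips by microscopy, with normalized cluster intensities fitted with a binding model.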

Sequence | apparent KD of K4 kissing-loop reporter (input ligand: FMN 200 uM) | apparent KD of K4 kissing-loop reporter (input ligand: arginine 13.2 mM) | apparent KD of K4 kissing-loop reporter (input ligand: none) | apparent KD of K4 kissing-loop reporter [1] | apparent KD of K4 kissing-loop reporter [2]
GUAGACGUACCUUCAGUGAUGUUGAAGGAUACCAGAUGUUACCACAUCCCUUGGCAGCCUUGGGAUAACAGUGAGUUGGAAUAUG [Usrite] | 182 nM | 137 nM | 172 nM | 156 nM | 150 nM
GUAGAUAGGCUACAUCUCUAGUCUAAAGACUAGGAUAUCAGGAAACUGAGAAGGAGUCUCAUUGGAGUGAUGUUCCAAGAAUAAU [KL-SSFMN-A16] | 100 nM | 106 nM | 89.2 nM | 109 nM | 71.7 nM
GUAGCACUUGAUAGUGAUGUUAUCAAGGGCAAGGAUAUCAUCUCAAUGAGAAGGUGUCCUUGAUAACUGCUACGGGAAUAUCCCA [Omei KL FMN A Exc D v6] | 444 nM | 89 nM | 96.8 nM | 86 nM | 102 nM
GUAUAUCGAGUGAUGUUCGAAUGCUCCGAAGGAGCGCGGAUAAUCGCAGGUAGGUCGCGGAGCAGUUGCUGAGGAAGCUCAGUAU [Arg A SS t11] | 162 nM | 401 nM | 211 nM | 211 nM | 147 nM
GUAUCGCUAGGAGGAUAUUUCAAUUCGCCUAUAAAUGGUGAUACGGAGUGAUGUUCCGAUUUACGGAAAGAAGGCCUAGUGAUAC [FMN B 8] | 146 nM | 275 nM | 283 nM | 298 nM | 282 nM
GUAUCGCUAGGAGGAUAUUUCAAUUCGUCAAUAAAUGGUGAUACGGAGUGAUGUUCCGAUUUACGGAAAGAAGGCCUAGUGAUAC [FMN B 7] | 173 nM | 265 nM | 298 nM | 287 nM | 285 nM
GUAUCGCUAGGAGGAUAUUUCAUAUAAUAUAUAAAUGGAUAUACGGAGUGAUGUUCCGAUUUACGGAAAGAAGGCCUAGUGAUAC [FMN B 18] | 134 nM | 183 nM | 214 nM | 229 nM | 202 nM
GUAUGUGGAAACACGUACUUAUAUCCUAGGCAGGAUAUGCGGAAACGCAGAAGGGCCACCGGCGAGUUUAUCCAGUGAUGUUGGA [Ex FMN A 8] | 251 nM | 253 nM | 294 nM | 271 nM | 245 nM
GUCGGCCGCGCGCAAGCGCGGCCGGCCGAUACCAGCGCGCCGGCGCGCCCUUGGCAGCGGCGCCGAGUGAUGUUCGGCCUGACGU [#2 Same State - Theophylline A Attempt #7 (HarryS)] | 710 nM | 538 nM | 704 nM | 601 nM | 917 nM
GUCUGCGUCUCGGCCGCCACUCACUAGUGAUGUUAGUAAGGAGCGACUAGAGAAGUCCAGUUAAUGAGGACCGGGAGAAGCUCUU [Exclusion Tryptophan B GF 3] | 122 nM | 133 nM | 137 nM | 106 nM | 117 nM
GUCUGUGUACUAGGAUAUGGUUGCAGACAGUCAGGUCGCCUUUUCGGCGGCCAGUGAUGUUGGUGGCCAGAAGGAGUACGUGAAG [Biririge] | 384 nM | 1580 nM | 1110 nM | 395 nM | 1480 nM
GUGCGCGGUGCGGCCGCCACUCGGAUGCGAGUGAUGUUCGCGGGACGGACGCAAGUCCGUCAUUCGAGGACCGGGCAUGGCUGUA [#2 Same State - Tryptophan B Attempt #5 (HarryS)] | 336 nM | 274 nM | 247 nM | 252 nM | 169 nM
GUGUAACGAGGAAACCUCGUUACACCCUCACGAGGACCGGUACGGCCGCCACUCGAGAGCUCGUGAGGAGUGAUGUUCCUCGUGA | 695 nM | 335 nM | 441 nM | 435 nM | 184 nM
GUUAAUAGUAGUGAUGUUACAAUAGUUUGUGAGGAUAUCCCGAAAGGGAGAAGGCACAAACAAAUAGAUUCUCACAAAUAUUUAC [FMN A exclusion] | 191 nM | 185 nM | 243 nM | 238 nM | 146 nM
GUUGACAGACUGCAAAACUAGUCAACAGACUAGGAUAUCAGGAAACUGAGAAGGAGUCAAGUUGCAGUGAUGUUGCAAGAAUAAU [KL-SSFMN-A27] | 137 nM | 182 nM | 173 nM | 214 nM | 136 nM
GUUGUAUACUGAAGGAGCGAGUAGUGGAAACAUAAACUCAUUGCGAGUGAUGUUCGCAGUACUCAGGUAGGUCGCAGUAAUCGUA [Exclusion Arginine B Gf 10] | 534 nM | 315 nM | 566 nM | 453 nM | 456 nM
GUUUGCCGGUCCCGGAGUGAUGUUCCGGAUACCAGCAACUUCCUUUGCCCUUGGCAGCCGUAGCUAUACCGGGUGGCAGCUUCAG [Anresoenus] | 111 nM | 89.5 nM | 104 nM | 110 nM | 111 nM
GUUUGCCGGUUCCGGAGUGAUGUUCCGGAUACCAGCAACUUCCUUUGCCCUUGGCAGCCGUAGCUAUACCGGAUGGCAGCUUCAG [Arrexean] | 96.1 nM | 82.7 nM | 89.3 nM | 86.7 nM | 95.4 nM
UAACUCUUGCAGUGAUGUUGCAAGUAAGCUCAGGAUAUCAGGAAACUGAGAAGGGAGCAUCCUGAGCAACUGCAAGAGCUCAGAA [[K1]-[K2]-[F1]-[F2]-[F]'-[K]'-[F]''_Design1] | 224 nM | 101 nM | 95.9 nM | 160 nM | 87.5 nM
UAAGAGGACCACUGCGAGAGUCCUCGAAUACGAGGACCGGUACGGCCGCCACUCGAUAAUUUGUAGUGAUGUUGCAAGUAAGAAU [BrourdMod 7 - Jieux - Same State Tryptophan A] | 50.3 nM | 64.5 nM | 42.1 nM | 61.9 nM | 31.8 nM
UACGCCACAGACGUGGAGUACCUUGGGUCGAAGGAUAUCAGCAUUGUGAGAAGGUCGCCGAUUCUAAGUGAUGUUUAGAUCAGGG [theeternabot_sameState_KL_FMN_A_2] | 132 nM | 275 nM | 446 nM | 567 nM | 409 nM
UACUUAUAGUUAUUUCUAAAUUUAUUUAGUCAGGAUAUCGAAUAGUCGAGAAGGGACAUAAUCAAGUGAUGUUUGAUUAUUCAAA [JR_SSFMNA_Sub023] | 64.8 nM | 96.1 nM | 84.8 nM | 88.8 nM | 69.6 nM

Sequence | apparent KD of K4 kissing-loop reporter (input ligand: FMN 200 uM) | apparent KD of K4 kissing-loop reporter (input ligand: arginine 13.2 mM) | apparent KD of K4 kissing-loop reporter (input ligand: none) | apparent KD of K4 kissing-loop reporter [1] | apparent KD of K4 kissing-loop reporter [2]
UACUUAUAUUUCAACUUAAAUUAUUCAGAAGGAGCGUGAUCAUUCACAGGUAGGUCGCUGAACUAGUGAUGUUAGUUUUAAUUUU [JR_Nu_ExcArginiA_Sub022] | 66.3 nM | 127 nM | 76.5 nM | 116 nM | 62.2 nM
UAGCGCAACCUGCUUACGUAUGAGCCGGAAGGAGCGGCAGAAUUGCCAGGUAGGUCGCCGGCCCAGUGAUGUUGGGAUGGUGUGG [Usritiis] | 265 nM | 226 nM | 252 nM | 223 nM | 228 nM
UAGGAGUGAUGUUCCAUAUGUAAGGCCGAAGGAGCGGCAUUAUAGCCAGGUAGGUCGCGGCAGUACGUACCAGUGAUGUUGGAAA [KL-SSArg-A5] | 173 nM | 94.9 nM | 150 nM | 119 nM | 116 nM
UAGUCAUACAGAGGAUAUCGUAUGAGUGAUGUUCAUACGACAUAAUCAAAUUGUAUUGAUGUUCGACGAGAAGGCUGUAUGACUA [FMN B Ex t1] | 221 nM | 103 nM | 124 nM | 117 nM | 124 nM
UAUAGAAACGUCCUAUCAAUAAAAUGGGAAGGAGCGAGGAAGAACUCAGGUAGGUCGCCCAAUAACCUUAGUGAUGUUAAGGAAA [Version 1] | 126 nM | 112 nM | 137 nM | 156 nM | 117 nM
UAUAGAGUGACGGCCGCCACUAUUGUGAUUUAAUUGUUAGAGUGAUGUUUUGUUGUUUGAUUUUGUAGGACCGGGUUAUAUGUUA [ecewzmullin] | 1050 nM | 768 nM | 976 nM | 854 nM | 802 nM
UAUAUAGUGACGGCCGCCACUAUAGUAAUGUUUUUGUUAGAGUGAUGUUUUGUUUUUUAAUUUUAUAGGACCGGGUUAUAUGUUA [llpmullin] | 360 nM | 218 nM | 374 nM | 376 nM | 240 nM
UAUGCUUGUGCUGAUACCAGUGUUAGUGAUGUUAGGACUGUCAGUAGGAUGCGUGCAUUUCACCCUUGGCAGCAGUAUCGCAGCA [theeternabot_exclusion_KL_Theo_B_48] | 447 nM | 295 nM | 351 nM | 426 nM | 387 nM
UAUGUACACGGGUAGUGAUACAUCGAGGAAGGAGCGUGCGCAGGCACAGGUAGGUCGCCUCAGCGCACGAGUGAUGUUCGUGGGC [Veti] | 471 nM | 325 nM | 393 nM | 380 nM | 376 nM
UAUUAAUUGUCAGGAUAUCGAAAUCGAGUGAUGUUCGUAAAUUAAUUAUUAUUAAUAAUAUUUAAACGAGAAGGGACAUUAUUUA [JR_SSFMNB_Sub001] | 235 nM | 558 nM | 694 nM | 647 nM | 442 nM
UAUUAAUUGUCAGGAUAUCGUAAACGAGUGAUGUUCGUAUAUCGACGAUAGUCGAUUCUAUCUAAACGAGAAGGGACAUUAUUUA [JR_SSFMNB_Sub008] | 346 nM | 454 nM | 664 nM | 516 nM | 420 nM
UCACUCAUGUGAAGGAGCGUGAGAAGACAUGAGUGAUGUUCAUGUCUAGACCAGCGUCUCUCACAGGUAGGUCGCACAUGAAAGG [Arg B SS t10] | 128 nM | 105 nM | 121 nM | 100 nM | 121 nM
UCCACGCUUCGAGGAUAUCGGAUUAGAGUGAUGUUCUAAAGACGCCCAGUGAUGUUGGAUGCGAUACGAGAAGGCGGUGGCGUGU [Same State FMN B GF6] | 236 nM | 195 nM | 244 nM | 140 nM | 176 nM
UCCUGCAGUCUGCCACGAAAGUGGAUUGAUACCAGAGUCGAAAGACUCCCUUGGCAGCGAGUGAUGUUCGAAGCAGGUAAAUAAA [MatMod 1 - Jieux - Exclusion - Theophylline A] | 160 nM | 204 nM | 178 nM | 221 nM | 130 nM
UCCUUUGUUGCCAGUGAUGUUGGACAGGAAGGAGCGGGCAUAAGCCCAGGUAGGUCGCCUGUCAACUUUCUUAUAGCCCGAAGGU [KL-XArg-A19] | 441 nM | 352 nM | 368 nM | 424 nM | 370 nM
UCGACUGUGUCGGCCGCCACUGGUAUAAACGGACUAUAACGACAUGAGUGAUGUUCAUGUUCGUCUAGGACCGGGACACAAUGUA [Tryp B Ex t3] | 102 nM | 81.8 nM | 96.7 nM | 81.7 nM | 90 nM
UCGAUAGAGAGUGAUGUUCUCGUAUCAGAUACCAGUCACGCGAGUGACCCUUGGCAGCUGAUGUACAGCUGAGAGUAGUAUUCGA [Theo A Ex t8] | 90.1 nM | 104 nM | 90.5 nM | 129 nM | 89.6 nM
UCGAUCGCUAGUGAUGUUGGUGUGCUACAUCGAGGACCGGUACGGCCGCCACUCGAGCCCGAGUAGAAGGGUGGGCUGCUAUGAA [theeternabot_sameState_KL_Trp_A_18] | 1510 nM | 1030 nM | 1190 nM | 743 nM | 895 nM
UCGCGUCUGUGAGGAUAUCAGAACAGAGUGAUGUUCUGUCAACGCCCAGUGAUGUUGGAUGCGAUCUGAGAAGGCACUGGGCGCA [Same State FMN B GF 9] | 1060 nM | 865 nM | 1320 nM | 1700 nM | 1160 nM
UCGUUAAAAGCGGCCGCCACUGCCAGAGCUCUGGAAAAGGCUGGAGUGAUGUUCUGCCUAGUAGACAGGACCGGGCUAUUGGAUU [theeternabot_sameState_KL_Trp_B_29] | 667 nM | 422 nM | 609 nM | 588 nM | 594 nM
UCUCAUCUCAGAAGGAGCGUGAGAGAAUAUUAGAAAUCGUCGAGUGAUGUUCGACGUCUCUCACAGGUAGGUCGCUGAGACGUCA [Arg B SS t9] | 111 nM | 107 nM | 97.4 nM | 121 nM | 111 nM
